Test results: patent US20260167721A1 (ABLEXIS, published 2026)

Legend:
[1] = target: T1, recombinant human CD3 epsilon/gamma heterodimer (human, UniProt P07766 23-126; P09693 23-116); assay: BLI (Octet), mAb 5 ug/mL on FAB2G sensor, hCD3 E/G 200-50 nM;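 note: antibodies purified from hybridoma supernatants, measured by Octet binding to recombinant human CD3 protein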
T1 construct: Recombinant heterodimer used as analyte in Octet; also called hCD3 E/G
T1 sequence (P07766 23-126, chain 1 of 2): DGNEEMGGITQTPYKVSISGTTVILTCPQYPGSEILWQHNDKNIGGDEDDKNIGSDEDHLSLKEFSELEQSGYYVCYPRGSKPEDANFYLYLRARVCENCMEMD
T1 sequence (P09693 23-116, chain 2 of 2): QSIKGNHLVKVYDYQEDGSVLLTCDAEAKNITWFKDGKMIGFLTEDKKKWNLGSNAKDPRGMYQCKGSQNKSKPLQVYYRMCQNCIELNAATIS
Experimental: (§1) Samples were evaluated by flow cytometry analysis against Jurkat and human Pan-T cells (FIG. 1B) as well as by Octet against recombinant human CD3 proteins to evaluate apparent affinities and binding off-rates (Table 6, infra).

[2] = target: T2, recombinant human CD3 epsilon/delta heterodimer (human, UniProt P07766 23-126; P04234 22-105); assay: BLI (Octet), mAb 5 ug/mL on FAB2G sensor, hCD3 E/D 200-50 nM
T2 construct: Recombinant heterodimer used as analyte in Octet; also called hCD3 E/D; human CD3E/D
T2 sequence (P07766 23-126, stated change not applied, chain 1 of 2): as the sequence (P07766 23-126, chain 1 of 2) above
T2 sequence (P04234 22-105, stated change not applied, chain 2 of 2): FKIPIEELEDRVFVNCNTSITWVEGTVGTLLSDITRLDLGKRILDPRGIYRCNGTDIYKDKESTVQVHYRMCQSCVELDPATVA
Experimental: as §1

[3] = target: T3, recombinant human CD3 epsilon/delta heterodimer (human, UniProt P07766 23-126; P04234 22-105); assay: Octet BLI, mAb on FAB2G sensor, hCD3 E/D 200-50 nM; R^2 0.99
T3 construct: Recombinant protein in solution (200-50 nM) in the Octet assay; also called hCD3 E/D; human CD3E/D
T3 sequence (P07766 23-126, stated change not applied, chain 1 of 2): as the sequence (P07766 23-126, chain 1 of 2) above
T3 sequence (P04234 22-105, stated change not applied, chain 2 of 2): as the sequence (P04234 22-105, stated change not applied, chain 2 of 2) above

[4] = target: T4, recombinant human CD3 epsilon/gamma heterodimer (human, UniProt P07766 23-126; P09693 23-116); assay: Octet BLI, mAb on FAB2G sensor, hCD3 E/G 200-50 nM; R^2 0.99
T4 construct: Recombinant protein in solution (200-50 nM) in the Octet assay; also called hCD3 E/G
T4 sequence (P07766 23-126, chain 1 of 2): as the sequence (P07766 23-126, chain 1 of 2) above
T4 sequence (P09693 23-116, chain 2 of 2): as the sequence (P09693 23-116, chain 2 of 2) above

Row | Kd [1] [nM] | Response [1] | koff [1] [s⁻¹] | kon [1] [M⁻¹ s⁻¹] | Kd [2] [nM] | Response [2] | koff [2] [s⁻¹] | kon [2] [M⁻¹ s⁻¹] | Kd [3] [nM] | Response [3] | koff [3] [s⁻¹] | kon [3] [M⁻¹ s⁻¹] | Kd [4] [nM] | Response [4] | koff [4] [s⁻¹] | kon [4] [M⁻¹ s⁻¹] | Binder
1 | 159 | 0.19 | 0.0593 | 373000 | 29.6 | 0.56 | 0.00726 | 245000 | – | – | – | – | – | – | – | – | ABL-CD3-75 (antibody, V domains shown, mAb purified from hybridoma; chimeric AlivaMab IgG (human VH, CH1 and upper hinge; mouse middle hinge, CH2, CH3; human light chain)) VH: EVQLVESGGGLVKPGGSLRLSCAASGFTFSTYSLNWVRQAPGKGLEWVSSISVSSRYIYFADSVKGRFTISRDNAKNSLYLQMNSLRAEDTAVYYCARDRRELLLDYWGQGTLVTVSS VL: SYELTQPPSVSVSPGQTARITCSGDALPKKYAYWYQQKSGQAPVLVIYEDSKRPSGIPERFSGSSSGTMATLTISGAQVEDEADYYCYSTDSSGNHNWVFGGGTKLTVL
2 | 134 | 0.24 | 0.0461 | 345000 | 48.2 | 0.53 | 0.0125 | 260000 | – | – | – | – | – | – | – | – | ABL-CD3-76 (antibody, V domains shown, mAb purified from hybridoma; chimeric AlivaMab IgG (human VH, CH1 and upper hinge; mouse middle hinge, CH2, CH3; human light chain)) VH: EVQLVESGGGLVKPGGSLRLSCAASGFTFSNYYMNWVRQAPGKGLERVSSISSSSNYIYYADSVKGRFTISRDNAKNSLYLQMNSLRAEDTAVYYCARDRRELPLDYWGQGTVVTVSS VL: SYELTQPPSVSVSPGQTARITCSGDALPKKYAYWYQQKSGQAPVLVIYEDSKRPSGIPERFSGSSSGTMATLTISGAQVEDEADYYCYSTDSSGNHWVFGGGTKLTVL
3 | – | – | – | – | – | – | – | – | 88.1 | 0.36 | 0.0321 | 365000 | 106 | 0.27 | 0.0449 | 423000 | ABL-CD3-5 (antibody, V domains shown, Chimeric hybridoma mAb: human V, CH1, upper hinge; mouse middle hinge, CH2, CH3) VH: EVQLVESGGGLVQPGGSLRLSCAASGFTFSRYSMNWVRQAPGKGLEWVSYISSSSSSIYYADSVKGRFTISRDNAKNSLYLQMNSLRDEDTAVYYCARDRRATLDYWGQGTLVTVSS VL: NFMLTQPHSVSESPGKTVTISCTRSSGSIASNYVQWYQQRPGSSPTTVIYEDNQRPSGVPDRFSGSIDSSSNSASLTISGLKTEDEADYYCQSYDSSNHVFGGGTKLTVL
4 | 37.6 | 0.01 | 0.00649 | 173000 | 22 | 0.03 | 0.00882 | 401000 | – | – | – | – | – | – | – | – | ABL-CD3-83 (antibody, V domains shown, mAb purified from hybridoma; chimeric AlivaMab IgG (human VH, CH1 and upper hinge; mouse middle hinge, CH2, CH3; human light chain)) VH: EVQLVESGGGLVKPGGSLRLSCAASGFTFSSYSMNWVRQAPGKGLEWVSTISRSGGYIYDADSVKGRFTISRDNAKNSLYLQMNSLRAEDTAVYYCARDFNWTFDNWGQGTLVTVSS VL: NFMLTQPHSVSESPGKTVTISCTRSSGSIASNYVQWYQQRPGSSPTTVIYEDNQRPSGVPDRFSGSIDSSSNSASLTISGLKTEDEADYYCQSSDRSNVVFGGGTKLTVL
5 | 6.12 | 0.99 | 0.000472 | 77000 | 1.26 | 1.02 | 0.0001 | 79700 | – | – | – | – | – | – | – | – | ABL-CD3-73 (antibody, V domains shown, mAb purified from hybridoma; chimeric AlivaMab IgG (human VH, CH1 and upper hinge; mouse middle hinge, CH2, CH3; human light chain)) VH: EVQLVESGGGLVKPGGSLRLSCAASGFTITSYSMNWVRQAPGKGLEWVSTFSRSSTYIYYADSVKGRFTISRDNAKNSLYLQMNSLRAEDTAVYYCAREKWDLLYFDYWGQGTLVTVSS VL: NFMLTQPHSVSESPGKTVTISCTRSSGSIASNYVQWYQQRPGSSPTTVIYEDNRRPSGVPDRFSGSIDSSSNSASLTISGLKTEDEADYYCQSYDNSNRVFGGGTTLTVL
6 | 29.8 | 0.64 | 0.00608 | 204000 | 27.9 | 0.042 | 0.00689 | 247000 | – | – | – | – | – | – | – | – | ABL-CD3-85 (antibody, V domains shown, mAb purified from hybridoma; chimeric AlivaMab IgG (human VH, CH1 and upper hinge; mouse middle hinge, CH2, CH3; human light chain)) VH: EVQLVESGGGLVKPGGSLRLSCAASGFTFSSYSMNWVRQAPGKGLEWVSSISRRSGYIYYADSVKGRFTLSRDNAKKSLYLQMNSLRAEDTAVYYCARDLNWAFDYWGQGTLVTVSS VL: NFMLTQPHSVSESPGKTVTISCTRSSGSIASNYVQWYQQRPGSSPTTVIYEDNHRPSGVPDRFSGSIDSSSNSASLTIAGLKTEDEADYYCQSCDSSNVVFGGGTKLTVL
7 | 912 | 0.04 | 0.692 | 759000 | 283 | 0.17 | 0.107 | 378000 | – | – | – | – | – | – | – | – | ABL-CD3-81 (antibody, V domains shown, mAb purified from hybridoma; chimeric AlivaMab IgG (human VH, CH1 and upper hinge; mouse middle hinge, CH2, CH3; human light chain)) VH: QVQLQESGPGLVKPSQTLSLTCTVSGGSISSGGYYWSWIRQHPGKGLEWIGYIYYSGSTYYNPSLKSRVTISVDTSKDQFSLKLSSVTAADTAVYYCARERKTSLPFDIWGQGTMVTVSS VL: NFMLTQPHSVSESPGKTVTISCTRSSGSIASNYVQWYQQRPGSSPTTVIYEDNQRPSGVPDRFSGSIDSSSNSASLTISGLKTEDEAYYYCQSFDSSNRVFGGGTKLTVL
8 | 3.52 | 1.17 | 0.000558 | 158000 | 3.88 | 1.1 | 0.000711 | 184000 | – | – | – | – | – | – | – | – | ABL-CD3-86 (antibody, V domains shown, mAb purified from hybridoma; chimeric AlivaMab IgG (human VH, CH1 and upper hinge; mouse middle hinge, CH2, CH3; human light chain)) VH: EVQLVESGGGLVKPGGSLRLSCAASGFTFSRYSMNWVRQAPGKGLEWVSTISRSSRYIYYGDSVKGRFTISRDNAKNSLLLQMNSLRAEDTAVYYCARDHNWSFDYWGKGILVTVSS VL: NFMLTQPLSVSESPGKTLTISCTRNSGSIASNYVQWYRQRPGSSPTTVIYEDKQRPSGVPDRFSGSIDSSSNSASLTISGLKAEDEADYYCQSCDSSNVVFGGGTTLTVL
